# Laboratory results: patent US20230312724A1 (KADMON, published 2023)
# T1: mouse B7-H4-his (mouse, UniProt Q7TSP5 25-257)
# T1 construct: also called mB7-H4-his; mB7-H4-His; not shown: his tag
# T1 sequence: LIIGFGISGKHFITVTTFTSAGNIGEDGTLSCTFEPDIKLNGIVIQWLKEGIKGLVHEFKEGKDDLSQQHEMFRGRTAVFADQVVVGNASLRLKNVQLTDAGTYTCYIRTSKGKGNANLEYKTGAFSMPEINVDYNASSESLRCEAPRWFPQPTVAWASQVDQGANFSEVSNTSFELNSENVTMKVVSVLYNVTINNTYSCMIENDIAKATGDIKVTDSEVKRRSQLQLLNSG
# T2: mouse B7-H4 expressed on cells (mouse, UniProt Q7TSP5 25-257)
# T2 construct: also called cellular mB7-H4; mB7-H4/CT26
# T2 sequence: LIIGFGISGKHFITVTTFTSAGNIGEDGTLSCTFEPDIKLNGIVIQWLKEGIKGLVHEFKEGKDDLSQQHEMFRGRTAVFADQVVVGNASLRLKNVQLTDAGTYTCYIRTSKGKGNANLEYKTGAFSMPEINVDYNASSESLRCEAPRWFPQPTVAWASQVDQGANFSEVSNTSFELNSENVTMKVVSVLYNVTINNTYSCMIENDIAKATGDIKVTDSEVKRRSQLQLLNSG
# T3: hB7-H4 (soluble human B7-H4, construct not named) (human, UniProt Q7Z7D3 25-259, limits assumed)
# T3 construct: also called soluble hB7-H4
# T3 sequence: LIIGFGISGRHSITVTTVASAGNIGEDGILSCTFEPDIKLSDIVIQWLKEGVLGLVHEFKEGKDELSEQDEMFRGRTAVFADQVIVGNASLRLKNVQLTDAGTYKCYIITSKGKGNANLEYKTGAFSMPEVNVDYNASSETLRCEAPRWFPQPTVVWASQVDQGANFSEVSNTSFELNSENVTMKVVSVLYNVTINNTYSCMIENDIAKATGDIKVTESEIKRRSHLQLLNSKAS
# T4: human B7-H4 expressed on cells (human, UniProt Q7Z7D3 25-282)
# T4 construct: Transfected CHO cells or tumor cell lines that carry hB7-H4; also called cellular hB7-H4
# T4 sequence: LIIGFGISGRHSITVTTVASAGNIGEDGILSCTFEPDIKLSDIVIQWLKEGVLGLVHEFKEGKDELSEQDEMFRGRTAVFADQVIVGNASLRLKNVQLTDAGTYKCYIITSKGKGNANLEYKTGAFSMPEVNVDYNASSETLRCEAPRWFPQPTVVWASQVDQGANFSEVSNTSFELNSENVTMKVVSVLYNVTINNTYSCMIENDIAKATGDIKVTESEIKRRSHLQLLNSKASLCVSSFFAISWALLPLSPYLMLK
# How the values were obtained:
# mouse B7-H4-Fc [1] = biological target: T5, mouse B7-H4-Fc (mouse; human); test: ELISA on coated mB7-H4-Fc
# T5 construct: also called mB7-H4-Fc; mB7-H4-hFc
# T5 sequence (chain, as listed by the source): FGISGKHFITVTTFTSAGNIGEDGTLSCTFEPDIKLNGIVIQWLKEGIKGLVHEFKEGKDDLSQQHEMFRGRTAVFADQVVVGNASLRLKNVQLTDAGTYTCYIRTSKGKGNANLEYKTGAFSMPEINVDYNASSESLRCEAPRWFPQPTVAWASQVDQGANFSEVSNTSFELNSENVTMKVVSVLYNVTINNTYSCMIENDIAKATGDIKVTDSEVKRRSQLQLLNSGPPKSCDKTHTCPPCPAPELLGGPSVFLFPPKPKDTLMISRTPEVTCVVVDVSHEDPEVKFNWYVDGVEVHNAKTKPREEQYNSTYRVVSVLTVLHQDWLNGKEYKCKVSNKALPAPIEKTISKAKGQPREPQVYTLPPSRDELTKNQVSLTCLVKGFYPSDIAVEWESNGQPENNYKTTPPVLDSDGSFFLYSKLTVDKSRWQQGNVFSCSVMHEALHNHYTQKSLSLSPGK
# Method: (§1) About 1-2 μg/ml of human or mouse B7-H4-Fc (or his-tagged) was immobilized on ELISA plates (Immuno 2HB, Thermo scientific, cat #3455) at 4° C. overnight. After blocking the plates with 3% PBS+milk, serial diluted antibodies were added to the blocked plates and incubated at RT for 1-1.5 h. After washing the plates with PBS-T (0.05%), horse radish peroxidase (HRP)-conjugated antibody targeting the hFab was added to the plate. Signals were developed by adding 3,3′,5,5′-Tetramethylbenzidine (TMB (followed 1N of H₂SO₄ to stop the reaction. The OD at 450 nm was read by ELISA plate reader (Infinite M1000 from TECAN). GraphPad from Prism was used to plot OD450 vs. antibody concentration curve and to calculate the EC50 values.
# human B7-H4-Fc [2] = biological target: T6, human B7-H4-Fc (human); test: ELISA, coated hB7-H4-Fc
# T6 construct: also called hB7-H4-Fc; hB7-H4 Fc
# T6 sequence (chain, as listed by the source): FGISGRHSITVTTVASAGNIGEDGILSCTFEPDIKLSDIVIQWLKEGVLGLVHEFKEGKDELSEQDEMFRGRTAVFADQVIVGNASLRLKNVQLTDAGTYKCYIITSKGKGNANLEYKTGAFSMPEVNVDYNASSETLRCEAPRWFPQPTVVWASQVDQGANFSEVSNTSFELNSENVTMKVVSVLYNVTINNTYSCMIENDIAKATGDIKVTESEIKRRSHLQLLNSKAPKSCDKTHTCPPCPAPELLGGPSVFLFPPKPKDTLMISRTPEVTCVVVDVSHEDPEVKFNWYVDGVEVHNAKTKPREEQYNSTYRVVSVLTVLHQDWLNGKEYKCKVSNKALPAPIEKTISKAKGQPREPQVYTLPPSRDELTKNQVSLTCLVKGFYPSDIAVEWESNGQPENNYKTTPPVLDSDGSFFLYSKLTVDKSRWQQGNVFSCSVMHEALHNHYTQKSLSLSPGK
# human B7-H4-Fc [3] = biological target: T6, human B7-H4-Fc; test: ELISA, coated hB7-H4-Fc; remark: listed apart in the source
# Method: as §1
# mouse B7-H4-Fc [4] = biological target: T5, mouse B7-H4-Fc; test: ELISA, coated mB7-H4-Fc
# Method: (§2) ELISA experiments were performed to determine binding to hB7-H4-Fc (FIG. 5A), hB7-H4-his (FIG. 5B), mB7-H4-Fc domain (FIG. 5C), hB7-H4 IgV domain (FIG. 5D), and hB7-H4 IgC domain (FIG. 5E). Flow cytrometry experiments were performed to determine binding to CHO cells expressing hB7-H4 (FIG. 5F) or mB7-H4 (FIG. 5G). […] A cross-reactive IgV binding antibody and an IgC binding antibody were used as controls.
# as §1
# human B7-H4-Fc [5] = biological target: T6, human B7-H4-Fc; test: ELISA on coated hB7-H4-Fc
# Method: as §1
# [6] = biological target: T7, IgV domain of human B7-H4-Fc (human); test: ELISA on coated IgV domain of hB7-H4
# T7 construct: also called hB7-H4 IgV domain
# T7 sequence (chain, as listed by the source): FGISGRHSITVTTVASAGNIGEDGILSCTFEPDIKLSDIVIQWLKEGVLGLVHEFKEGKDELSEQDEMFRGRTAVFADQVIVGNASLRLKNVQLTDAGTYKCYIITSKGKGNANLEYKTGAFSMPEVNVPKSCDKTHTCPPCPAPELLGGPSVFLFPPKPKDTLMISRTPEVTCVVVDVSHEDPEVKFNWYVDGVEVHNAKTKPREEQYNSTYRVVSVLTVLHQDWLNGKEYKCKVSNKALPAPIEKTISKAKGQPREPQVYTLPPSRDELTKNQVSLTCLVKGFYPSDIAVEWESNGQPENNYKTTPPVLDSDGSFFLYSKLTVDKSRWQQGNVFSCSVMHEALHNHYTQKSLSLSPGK
# Method: as §1
# mouse B7-H4-his = biological target: T1, mouse B7-H4-his; test: ELISA on coated mB7-H4-his
# Method: as §1
# human B7-H4-Fc [7] = biological target: T6, human B7-H4-Fc; test: ELISA, coated hB7-H4-Fc; remark: listed apart in the source
# Method: as §2, §1
# [8] = biological target: T2, mouse B7-H4 expressed on cells; test: flow cytometry on mB7H4-CT26 cells
# Method: (§3) Cells were harvested, washed once, and then re-suspended to the concentration of 1×10⁶ cells/ml in ice cold FACS Buffer. 25 μl of cell suspension was added to each well of a 96-well round-bottom microliter plate. Serially diluted antibodies or fusion proteins were added to each well and incubated for 1 hour at 4° C. Cells were washed three times by centrifugation at 1500 rpm for 5 minutes, and then stained with secondary antibody (1:200 dilution) for 30 min at 4° C. in the dark. Cells were washed once, re-suspended in 100 μl PBS buffer and then analyzed using Guava Flow Cytometry EasyCyte system.
# [9] = biological target: T7, IgV domain of human B7-H4-Fc; test: ELISA, coated hB7-H4 IgV domain
# [10] = biological target: T3, hB7-H4 (soluble human B7-H4, construct …); test: ELISA, hB7-H4
# Procedure, shortened: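 ~1-2 μg/ml antigen coated o/n 4° C; 3% milk block; Ab serial dil., RT 1-1.5 h; PBS-T wash; HRP-anti-hFab; TMB/1N H₂SO₄; A450. EC50 from OD vs. conc.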
# [11] = biological target: T4, human B7-H4 expressed on cells; test: flow cytometry on SK-BR-3 cells
# Method: as §3
EC50 (read off the curve) (mouse B7-H4-Fc [1]) [nM],EC50 (read off the curve) (human B7-H4-Fc [2]) [µg/mL],EC50 (read off the curve) (human B7-H4-Fc [3]) [nM],EC50 (read off the curve) (mouse B7-H4-Fc [4]) [nM],EC50 (read off the curve) (human B7-H4-Fc [5]) [nM],EC50 (read off the curve) [6] [nM],EC50 (read off the curve) (mouse B7-H4-his) [nM],EC50 (read off the curve) (human B7-H4-Fc [7]) [nM],EC50 (read off the curve) [8] [nM],EC50 (read off the curve) [9] [nM],EC50 [10] [nM],EC50 (read off the curve) [11] [nM],Binder
~0.1,~0.02,~0.1,~0.1,~0.1,~0.2,~0.2,~0.07,,,,,"Control antibody 1 (antibody 20502 described in US20190085080A1) (antibody, V domains shown, also called (+) control Ab1; (+) Ab1) VH: QLQLQESGPGLVKPSETLSLTCTVSGGSIKSGSYYWGWIRQPPGKGLEWIGNIYYSGSTYYNPSLRSRVTISVDTSKNQFSLKLSSVTAADTAVYYCAREGSYPNQFDPWGQGTLVTVSS VL: EIVMTQSPATLSVSPGERATLSCRASQSVSSNLAWYQQKPGQAPRLLIYGASTRATGIPARFSGSGSGTEFTLTISSLQSEDFAVYYCQQYHSFPFTFGGGTKVEIK"
,,,,,,,,~2,~0.1,0.068,~2,"39A11/57G8 (antibody, human IgG1, V domains shown, 39A11 VH with 57G8 VL) VH: EVQLLESGGGLVQPGGSLRLSCAASGFTFSSYGMHWVRQAPGKGLEWVASISSSSGYIYYADSVKGRFTISRDNSKNTLYLQMNSLRAEDTAVYYCARASSGMDVWGQGTTVTVSS VL: DIQMTQSPSSLSASVGDRVTITCRASQSIRSYLNWYQQKPGKAPKLLIYYASSLQSGVPSRFSGSGSGTDFTLTISSLQPEDFATYYCQQYYSTPLTFGQGTKVEIK"
